From US6475806

Target: antibody to hCG
Experiment: competition: unlabelled hCG displacing hCG-I^125 from the antibody to hCG

Substance “hCG (from UniProt P01215 25-116; P0DN86 21-165) (ligand)” has an IC50 of 10 nM.
